Reference: patent publication US8114412B2, “T. cruzi-derived neurotrophic agents and methods of use therefor” (priority 1999, dated 2012)
“Also recorded” adds a separate entry of the source.

Legend:
[1] = tested on: N18 cells; test: Neurite outgrowth assay in N18 cells; assay type: cell-based; settings: immobilized proteins coated at 500 μg/ml, 17 hours (FIG. 3A)
Method: FIG. 3A is a graph showing that neurite outgrowth in N18 cells is induced by immobilized laminin (Ln), immobilized TS and immobilized fragments of TS. Proteins were immobilized by incubating plates which contained wells filled with solutions of the proteins (protein concentration was 500 μg/ml) at 4° C. overnight. The protein solutions were removed and the plates were further incubated with 1% BSA at room temperature for one hour. N18 cells were cultured in the coated wells in serum-free RPMI-1640/0.2% BSA for 17 hours, and neurite outgrowth was measured by phase-contrast microscopy. […] Ln, laminin; TS, purified T. cruzi trans-sialidase; 7F, recombinant TS from clone 7F; 19Y, recombinant TS from clone 19Y; TS-F, recombinant fragment consisting of amino acid residues 33-666 of TS (SEQ ID NO:2); TS-CC-47, recombinant fragment consisting of amino acid residues 79-478 of TS (SEQ ID NO:2); TS-Cat-47, recombinant fragment consisting of amino acid residues 79-415 of TS (SEQ ID NO:2); BSA, bovine serum albumin.
96-well microtiter plates were coated overnight at 4° C. with the TS or peptides or fragments thereof, or with control proteins laminin (Ln) or bovine serum albumin (BSA) at 500 μg/ml. After removing the compounds, the plates were further incubated with 1% BSA for 1 hour at room temperature and immediately used as substratum for PC12 or N18 (Prasad, K. N., Biol Rev Camb Philos Soc, 66:431-451 (1991)) cells in serum-free RPMI/0.2% BSA. Neurite outgrowth was measured using a phase-contrast microscope 17 hours later.

[2] = tested on: PC12 cells; test: Trophic factor withdrawal-induced apoptosis of PC12 cells (DAPI/TUNEL); assay type: cell-based, rat
Excerpt: PC12 cells were obtained from ATCC (Manassas, Va. (Accession No. CRL-1721)) and cultured on collagen-coated dishes in RPMI 1640 supplemented with 10% horse serum and 5% fetal bovine serum (Greene, L. A. and Tishler, A. S., Proc. Natl. Acad. Sci. USA, 73: 2424-2428 (1976)). For differentiation and survival experiments, cells were washed three times in serum-free RPMI/0.2% BSA, plated in the same medium in collagen-coated plastic dishes at 2×10^5/ml, without and with growth factors, TS, recombinant proteins, synthetic peptides, for the time and concentrations indicated in the Figures.
Cell staining with 4,6-diamino-2-phenylindole (DAPI). Cells were fixed with 4% formaldehyde in PBS for 5 minutes, washed with PBS, stained with 10 μg/ml DAPI (Sigma) for 2 minutes, washed with PBS, and visualized under UV light using a fluorescent microscope. About 300-400 cells were examined under the microscope to determine the percentage of apoptotic cells.
Cell DNA nick end labeling (TUNEL) (Gavrieli, Y., et al., J. Cell. Biol. 119: 493-501 (1992)) assay was performed using a kit purchased from Boehringer Mannheim as described by the manufacturer.
Protection against apoptosis of PC12 cells in serum-free medium containing a test agent (agent N)(e.g., protection induced by TS, TS fragments, NGF or other growth factors), was calculated by the formula: 100%-[(apoptosis(%) of cells kept in RPMI containing test agent N÷apoptosis (%) of cells kept in RPMI)×100%]. Testing the effect of wortmannin (Sigma) and LY294002 (Sigma) in inhibiting the neuroprotection of TS was performed following the protocol described by others (Yao and Cooper, Science, 267:2003-2006 (1995); D'Mello et al., J. Neurosci 17:1548-1560 (1997)). In brief, PC12 cells were switched from growth medium to RPMI without and with TS or various other growth factors. After 24 hr, wortmannin and LY294002 were added to the cultures. After another 24 hrs, cells were examined for apoptosis by the DAPI assay, as above.

[3] = tested on: human Schwann cells; test: Serum withdrawal-induced apoptosis of immortalized human Schwann cells (DAPI); assay type: cell-based
[4] = tested on: Akt kinase in PC12 cells; test: Immunodetection of activated Akt (Ser 473) in PC12 cells; assay type: cell-based, rat
Method: PC12 cells were deprived of serum for 24-48 hours, stimulated with TS, TS-F or LTR for 2, 5 or 10 minutes and immediately lysed with 2% SDS. In studies using the PI-3 kinase inhibitor, LY294002 (LY), cells were pre-treated with the inhibitor (1 μM) for 30 min prior to the addition of TS-F or TS. The proteins in the cell lysate were separated in SDS-10% polyacrylamide gels, transferred to nitrocellulose membrane (Bio-Rad) and the phosphorylated form of protein kinase Akt was detected with phospho-Akt (Ser 473) antibody (New England BioLabs, Beverly, Mass.), followed by alkaline phosphatase-conjugated secondary antibody (Promega, Madison, Wis.). Bands corresponding to phospho-Akt (60 kDa) were quantified using a scanning densitometer (Bio-Rad).

[5] = tested on: human bladder carcinoma T-24 cell line; test: IL-6 secretion by T-24 carcinoma cells (ELISA); assay type: cell-based
Method: Primary cultures of human intestinal microvascular endothelial cells (HIMEC) isolated from normal jejunal mucosa/submucosal tissue were prepared as described (Strong et al., Gastroenterology 114: 1244-1256 (1998)). The HIMEC were cultured in fibronectin-coated plasticware in MCDB medium (Sigma) supplemented with 20% FBS, 90 μg/ml heparin and 50 μg/ml endothelial cell growth factor (Sigma). T-24 cells (ATCC Accession No. HTB-4) were cultured in M199 medium supplemented with 10% FBS. PBMC were purified by Ficoll-Paque gradient as described (Current Protocols in Immunology, pp 7.1.1-7.1.2). Vero cells (ATCC Accession No. CCL-81) were grown in RPMI medium with 5% Nu serum and infected with the Silvio X-10/4 of T. cruzi as described previously (Chuenkova et al., J. Exp. Med. 181: 1693-1703, (1995)).
Endothelial cells and T-24 cells were plated on 24-well plates at a density of 1×10^3 cells/well, while peripheral blood mononuclear cells (PBMC) were plated in the similar wells at 1×10^6/well. Triplicat cultures of cells were incubated test agents for a predetermined amount of time. […] Cytokines and chemokines released in the culture supernatants were measured by ELISA assay following the instructions of the manufacturer (Endogen). The cytokines tested were IL-1β, IL-4, IL-8, IL-10, IL-12, IFN-γ, TNF-α, and the chemokines RANTES and MCP-1. Negative controls were cells incubated in medium containing polymixin B at 10 μg/ml, and positive controls were cells incubated with bacterial LPS at the low ng/ml range (for PBMC or HIMEC) or in the μg/ml range for carcinoma T-24 cells. In some experiments, IL-1β, or TNFα were used as positive control for cytokine release.

B1: TS: T. cruzi trans-sialidase purified by immuno-affinity chromatography from supernatants of infected Vero cells (SEQ ID NO:2, SEQ ID NO:34) (protein, listed as Trypanosoma cruzi)
chain: MVAIADARYETSSENSLIDTVAKYSVDDGETWETQIAIKNSRVSSVSRVVDPTVIVKGNKLYVLVGSYYSSRSYWSSHGDARDWDILLAVGEVTKSTAGGKITASIKWGSPVSLKKFFPAEMEGMHTNQFLGGAGVAIVASNGNLVYPVQVTNKRKQVFSKIFYSEDDGKTWKFGKGRSDFGCSEPVALEWEGKLIINTRVDWKRRLVYESSDMEKPWVEAVGTVSRVWGPSPKSNQPGSQTSFTAVTIEGMRVMLFTHPLNFKGRCVRDRLNLWLTDNQRIYNVGQVSIGDENSAYSSVLYKDDKLYCLHEINTDEVYSLVFARLVGELRIIKSVLRSWKNWTATCPAFAPLLIQPLRRQRVVVVPLSPRLVLLAFCRQRLPKRMGGSYRCVNASTANAERVRNGLKFAGVGGGALWPVSQQGQNQRYRFANHAFTLVASVTIHEAPRAASPLLGASLDSSGGKKLLGLSYDEKHQWQPIYGSTPVTPTGSWETGKRYHLVLTMANKIGSVYIDGELLEGSGQTVVPDGRTPDISHFYVGGYKRSDMPTISHVTVNNVLLYNRRQLNTEEIRTLFLSQDLIGTEAHMDSSSDSSAHSTPSTPADSSAHSTPSTPVDSSAHSTPSTPADSSAHGTPSTPVDSSAHGTPSTPADSSAHGTPSTPVDSSAHSTPSTPVDSSAHSTPSTPVDSSAHGAPSTPADSSAHGTPSTPVDSSAHGTPSTPADSSAHSTPSTPADSSAHSTPSTPADSSAHSTPSTPVDSSAHGTPSTPADSSAHSTPSTPADSSAHGTPSTPVDSSAHSTPSTPVDSSAHGTPSTPVDSSAHSTPSTPVDSSAHGTPSTPVDSSAHSTPSTPADSSAHSTPSTPADSSAHGTPSTPVDSSAHSTPSTPADSSAHSTPSTPVDSSAHSTPSTPADSSAHGTPSTPVDSSAHGTPSTPADSSAHSTPSTPADSSAHSTPSTPADSSAHSTPSTPVDSSAHSTPSTPADSSAHSTPSTPADSSAHSTPSTPADSSAHSTPSTPVDSSAHSTPSTPADSSAHGTPSTPADSSAHSTPSTPVDSSAHSTPSTPADSSAHGTPSTPADSSAHSTPSTPADSSAHGTPSTPADSSAHSTPSTPAGSSANGTVLILPDGAALSTFSGGGLLLCACALLLHVFFMAVF
B1 was tested, and the “neurite outgrowth in N18 cells” value [1] was “induced neurite outgrowth”, the “PC12 cells protected from death” value ([2]; TS 62 pM (equivalent to 12.5 ng/ml)) was 45% and the “survival of PC12 cells grown in serum-free medium” value ([2]; TS 2.5 ng/ml alone or with CNTF 50 ng/ml or LIF 0.5 ng/ml) was 13%. The “PC12 cells protected from apoptotic death” value ([2]; TS 2.5 ng/ml, NGF 0.5 ng/ml, alone or co-administered at the same concentrations) was 15%, the “potency relative to NGF in preventing apoptosis” value ([2]; molar basis) was “more potent on a molar basis; also recorded: at concentrations lower than those required by nerve growth factor; also recorded: more effective on a molar base” and the “protection of PC12 cells from apoptosis induced by trophic factor withdrawal” value ([2]; serum-free RPMI-1640/0.2% BSA, 17 hours, DAPI or TUNEL) was “effectively protected; also recorded: inhibits trophic factor withdrawal-induced apoptosis; also recorded: protects PC12 cells from apoptosis induced by trophic factor withdrawal in a dose dependent manner; also recorded: protected PC12 cells from apoptosis”. For the same molecule, the “duration of protection of PC12 cells by a single dose” value ([2]; time course, TS 0.5 nM (FIG. 5B)) was “up to several days; also recorded: delayed trophic factor withdrawal-induced apoptotic death”, the “dose showing efficacy as trophic factor for Schwann cells” value [3] was no less than 0.5 nM and the “inhibition of serum withdrawal-induced apoptosis of human Schwann cells” value ([3]; serum-free DMEM, 24-72 hours, DAPI) was “effectively inhibited; also recorded: dose-dependent inhibition”. For the same molecule, the “phosphorylation/activation of Akt kinase in PC12 cells” value ([4]; 100 ng/ml, 2, 5 or 10 minutes, phospho-Akt (Ser 473) antibody) was “becomes activated; also recorded: induces serine phosphorylation of Akt kinase”, the “exposure time after which Akt becomes activated” value ([4]; TS 100 ng/ml) was 2 to 5 min and the “IL-6 secretion by T-24 cells” value ([5]; 24 hours culture) was “stimulated IL-6 secretion”. The “bacterial LPS concentration inducing the same IL-6 in T-24 cells” value ([5]; TS 1 μg/ml, 24 hr) was 0.75 µg/mL.
